Assays:
rFVIII [1] = molecular target: T1, rFVIII (Homo sapiens, UniProt P00451); experiment: confirmatory binding assay in filtration plate format using 14C-rFVIII; conditions: Table 3; for Total dpm / beads % total / beads dpm: 14C-rFVIII 20 nM; for 0.5M CaCl2 % total / 2% acetic acid % total / 2% acetic acid dpm / 0.5M CaCl2 dpm: 14C-rFVIII 20 nM in PPF, 5 mg beads; for 0.5M CaCl2 dpm: 3.0 × 10^15 DPM/mole, 5° C.; for beads % total / beads dpm: remaining on beads after washes
Method: Confirmatory binding assays were performed in a filtration plate format using individual peptide sequences synthesized directly onto the TOYOPEARL AF amino 650 M resin, at a final substitution density of 0.1 mmole/g resin. A slurry of each individual peptide sequence was prepared using deionized water. A 100 μL volume of beads (corresponding to 5 mg) was loaded into each well of the filtration plate (MULTISCREEN Assay System, Millipore, Bedford, Mass.), in triplicate for each peptide sequence. Beads were washed with 20% ethanol and incubated overnight with equilibration buffer (20 mM imidazole, 10 mM
CaCl2, 0.105 M NaCl, pH 6.9). A 100 μL aliquot of ^14 C-rFVIII diluted in neat PPF to a final concentration of 20-30 nM was loaded into each well and incubated for 1 hour at 5° C. Filtrate (unbound ^14 C-rFVIII) was collected into a microtiter plate and transferred to liquid scintillation vials for dpm counting. Beads were washed sequentially with: 100 μL of equilibration buffer for 15 minutes, 200 μL of 0.5 M CaCl2 (in equilibration buffer), 200 μL of 1.0 M CaCl2 (in equilibration buffer), and 200 uL of 2% by volume glacial acetic acid in water, for 1 hour each at 5° C. Scintillation counting on the unbound ^14 C-rFVIII (plus equilibration buffer wash), salt and acid washes, as well as on the beads was then performed and the overall mass balance calculated.
Beads presenting the appropriate peptide sequence on the surface were placed in the filtration plate wells and incubated sequentially with equilibration buffer, ^14 C-rFVIII in PPF, equilibration buffer, 0.5 M CaCl2 wash, 1.0 M CaCl2 wash and 2% acetic acid wash. After each incubation, filtrate was collected in microtiter plates, and dpm counted on each
In Table 3, the ^14 C-rFVIII was loaded at 20 nM (in PPF) and the radiolabeling yield was at 3.0×10^15 dpm/mole. In Table 4, the ^14 C-rFVIII was loaded at 30 nM (in PPF) and the radiolabeling yield was at 5.0×10^15 dpm/mole.

rFVIII [2] = molecular target: T1, rFVIII; experiment: column format binding assay, rFVIII mass per fraction by sandwich capture ELISA for the light chain; conditions: for 0.5M CaCl2 ng / 0.5M CaCl2 % total / 2% acetic acid % total / 2% acetic acid ng / Flow through % total / Total ng / Flow through ng: Table 5; for Flow through ng: 10,000 ng rFVIII in 1:10 PPF injected, 5° C.; for ELISA results % total: Table 9, 0.5M CaCl2 fraction
Method: Immunoassay on rFVIII using a sandwich capture ELISA for the light chain and activity assay using a chromogenic substrate (COATEST Factor VIII kit from diaPharma, Franklin, Ohio) were performed on a BIOMEK® automated liquid handling system from Beckman Instruments (Brea, Calif.). The monoclonal antibody for rFVIII light chain (known as C7F7), the ELISA assay standard (lot A70K019), and the control for the activity assay (lot A70A001 @ 140 IU/mL) were from the Bayer Corporation (Berkeley, Calif.). The standard for the activity assay was at 11.2 IU/mL (Bayer, Clayton, N.C.), calibrated against the MEGA 1 standard, which is a working standard used by American manufacturers for measuring factor VIII activity (21).
Additional confirmatory binding assay and performance of the discovered binding peptides in terms of total rFVIII and activity recovery was performed in a column chromatographic format on a microbore HPLC. The resins were packed into 0.4×5 cm columns (Thomson, Springfield, Va.) and tested on the MICHROM HPLC system (Michrom BioResources, Auburn, Calif.). The elution program for the trials utilized the following method. The column was pre-equilibrated with equilibration buffer (as above). A 1 mL aliquot of 1:10 PPF followed by 1 mL of rFVIII (10,000 ng) in 1:10 PPF were injected and allowed sufficient time to flow through the column using equilibration buffer. The column was then washed with step elutions of 0.5 M and 1.0 M CaCl2 in equilibration buffer. The column was exposed to equilibration buffer. Remaining protein was eluted with 2% by volume glacial acetic acid in water. Columns were kept at 5° C. during the chromatographic runs. For each 1 mL injection (equilibration buffer, 1:10 PPF and 10,000 ng rFVIII in 1:10 PPF), the chromatographic cycle was run for 45 minutes (injection, flow through, 0.5 M CaCl2, 1.0 M CaCl2, equilibration buffer, 2% acetic acid, equilibration buffer).
A Gilson FC204 fraction collector at the HPLC outlet collected individual eluates for further analysis. Each collection tube had 100 μL hSA added to it to stabilize the rFVIII. Fractions collected from the 2% acetic acid eluates were neutralized with 2 M Tris, pH 10.5 to bring the pH to neutrality. The fractions were analyzed for total protein by the integration of the absorbance at 280 nm, for rFVIII by immunoassay (sandwich capture ELISA), and for rFVIII activity by a chromogenic substrate assay.
Tables 5 and 6 present the results from the additional confirmatory binding assays using the column format. The chromatography method was run by injecting the samples at a flow rate of 865 μL/min (413 cm/hr). In order to provide a 10 minute residence time of sample in the column the flow was decreased to 17 μL/min (10 cm/hr) upon injection.
Following the incubation, the flow was set at 865 μL/min (413 cm/hr) for the step clutions of 0.5 M CaCl2, 1.0 M CaCl2, and 2% acetic acid. Results are expressed in terms of the total mass of rFVIII in each fraction, as determined by the sandwich capture ELISA assay for the rFVIII light chain. […] A control using a non-binding peptide sequence (IGF) is also shown for comparison--in this case, 95% of the rFVIII loaded to the column was collected in the flow through fraction. Additional controls with no

T1 sequence (P00451 20-2351): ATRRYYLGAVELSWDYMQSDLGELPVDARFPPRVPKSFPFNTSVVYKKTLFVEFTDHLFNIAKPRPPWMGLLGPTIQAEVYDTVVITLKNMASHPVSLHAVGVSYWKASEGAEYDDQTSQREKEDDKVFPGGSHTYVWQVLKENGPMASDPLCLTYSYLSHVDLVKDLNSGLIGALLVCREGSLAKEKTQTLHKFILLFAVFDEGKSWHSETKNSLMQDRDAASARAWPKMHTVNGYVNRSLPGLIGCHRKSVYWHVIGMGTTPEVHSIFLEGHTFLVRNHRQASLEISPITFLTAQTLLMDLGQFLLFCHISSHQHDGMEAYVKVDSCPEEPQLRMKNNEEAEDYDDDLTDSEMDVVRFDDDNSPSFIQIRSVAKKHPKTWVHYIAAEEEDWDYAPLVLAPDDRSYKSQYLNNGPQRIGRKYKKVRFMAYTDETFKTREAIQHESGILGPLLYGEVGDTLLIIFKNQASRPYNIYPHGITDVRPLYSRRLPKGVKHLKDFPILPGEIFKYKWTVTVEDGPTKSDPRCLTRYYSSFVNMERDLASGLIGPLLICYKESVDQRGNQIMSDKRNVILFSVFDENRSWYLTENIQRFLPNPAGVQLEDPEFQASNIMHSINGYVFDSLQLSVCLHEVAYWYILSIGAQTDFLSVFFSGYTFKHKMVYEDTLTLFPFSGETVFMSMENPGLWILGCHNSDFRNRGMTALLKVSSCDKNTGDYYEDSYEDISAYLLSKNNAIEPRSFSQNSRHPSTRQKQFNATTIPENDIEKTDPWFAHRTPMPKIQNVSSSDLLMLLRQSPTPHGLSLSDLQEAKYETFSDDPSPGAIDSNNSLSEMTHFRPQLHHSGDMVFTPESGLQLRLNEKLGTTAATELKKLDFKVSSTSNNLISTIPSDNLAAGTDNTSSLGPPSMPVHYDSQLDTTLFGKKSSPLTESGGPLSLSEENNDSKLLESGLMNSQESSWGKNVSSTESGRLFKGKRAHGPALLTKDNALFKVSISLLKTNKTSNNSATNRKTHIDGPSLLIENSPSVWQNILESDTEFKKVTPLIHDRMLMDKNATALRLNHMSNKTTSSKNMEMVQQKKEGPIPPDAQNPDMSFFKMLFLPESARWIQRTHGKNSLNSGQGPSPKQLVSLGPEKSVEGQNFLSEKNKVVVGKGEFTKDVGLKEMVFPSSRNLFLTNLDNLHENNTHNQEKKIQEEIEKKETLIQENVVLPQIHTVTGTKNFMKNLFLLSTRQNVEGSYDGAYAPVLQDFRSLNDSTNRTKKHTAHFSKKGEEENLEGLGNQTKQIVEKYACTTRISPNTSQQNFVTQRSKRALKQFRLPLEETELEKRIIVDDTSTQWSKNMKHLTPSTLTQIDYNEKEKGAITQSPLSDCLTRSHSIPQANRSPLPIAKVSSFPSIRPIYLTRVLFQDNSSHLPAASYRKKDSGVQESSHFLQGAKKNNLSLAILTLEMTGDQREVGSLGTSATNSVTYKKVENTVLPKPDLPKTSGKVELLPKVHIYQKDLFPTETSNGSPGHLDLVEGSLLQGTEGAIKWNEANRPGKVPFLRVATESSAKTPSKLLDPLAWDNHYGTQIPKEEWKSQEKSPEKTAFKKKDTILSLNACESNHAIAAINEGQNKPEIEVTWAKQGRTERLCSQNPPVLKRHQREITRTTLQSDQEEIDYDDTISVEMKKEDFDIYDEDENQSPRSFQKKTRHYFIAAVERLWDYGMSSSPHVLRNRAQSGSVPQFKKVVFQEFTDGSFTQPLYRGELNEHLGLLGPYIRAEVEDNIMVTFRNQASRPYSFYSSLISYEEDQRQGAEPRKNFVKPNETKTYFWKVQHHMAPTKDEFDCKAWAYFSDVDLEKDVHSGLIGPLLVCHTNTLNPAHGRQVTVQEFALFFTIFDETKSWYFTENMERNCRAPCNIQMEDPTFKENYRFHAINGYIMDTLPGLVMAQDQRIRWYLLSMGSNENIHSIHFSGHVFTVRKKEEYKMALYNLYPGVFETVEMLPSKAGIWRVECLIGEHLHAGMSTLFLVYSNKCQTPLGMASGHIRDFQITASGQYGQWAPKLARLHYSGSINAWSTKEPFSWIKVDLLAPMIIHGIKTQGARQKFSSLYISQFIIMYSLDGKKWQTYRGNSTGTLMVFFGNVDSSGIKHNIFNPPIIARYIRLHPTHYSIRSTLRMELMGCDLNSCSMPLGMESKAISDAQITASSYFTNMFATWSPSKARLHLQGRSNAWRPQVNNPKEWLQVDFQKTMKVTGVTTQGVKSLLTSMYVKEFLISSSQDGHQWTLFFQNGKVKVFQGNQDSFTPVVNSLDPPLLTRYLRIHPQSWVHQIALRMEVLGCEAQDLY
T1 sequence (P00451 1668-2351 limits assumed): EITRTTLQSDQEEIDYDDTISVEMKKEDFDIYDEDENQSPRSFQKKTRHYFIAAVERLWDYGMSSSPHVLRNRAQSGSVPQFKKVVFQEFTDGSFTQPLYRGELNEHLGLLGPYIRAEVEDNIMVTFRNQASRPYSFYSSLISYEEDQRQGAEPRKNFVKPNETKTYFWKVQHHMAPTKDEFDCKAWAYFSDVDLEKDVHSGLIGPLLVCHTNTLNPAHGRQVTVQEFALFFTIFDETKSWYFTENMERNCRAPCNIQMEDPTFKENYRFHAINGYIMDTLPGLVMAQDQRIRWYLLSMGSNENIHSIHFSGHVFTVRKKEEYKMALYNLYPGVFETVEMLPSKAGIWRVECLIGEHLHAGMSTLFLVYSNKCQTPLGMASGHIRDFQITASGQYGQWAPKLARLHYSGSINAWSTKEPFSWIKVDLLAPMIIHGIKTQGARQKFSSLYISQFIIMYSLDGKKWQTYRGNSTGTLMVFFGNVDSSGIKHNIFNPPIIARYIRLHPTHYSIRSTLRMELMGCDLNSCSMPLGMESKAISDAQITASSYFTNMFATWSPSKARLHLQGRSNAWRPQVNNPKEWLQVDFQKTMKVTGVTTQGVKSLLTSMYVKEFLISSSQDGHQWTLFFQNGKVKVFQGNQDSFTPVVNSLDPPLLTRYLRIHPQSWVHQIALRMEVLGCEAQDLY

Total dpm (rFVIII [1])	0.5M CaCl2 % total (rFVIII [1])	2% acetic acid % total (rFVIII [1])	2% acetic acid dpm (rFVIII [1])	0.5M CaCl2 dpm (rFVIII [1])	beads % total (rFVIII [1])	beads dpm (rFVIII [1])	0.5M CaCl2 ng (rFVIII [2])	0.5M CaCl2 % total (rFVIII [2])	2% acetic acid % total (rFVIII [2])	2% acetic acid ng (rFVIII [2])	Flow through % total (rFVIII [2])	Total ng (rFVIII [2])	Flow through ng (rFVIII [2])	ELISA results % total (rFVIII [2])	Substance
4098 dpm	86%	9%	377 dpm	3543 dpm	4%	178 dpm	5449 ng	97%	0%	10 ng	2%	5623 ng	122 ng	97%	8 (RPRW) [compound 8]
2608 dpm	25%	67%	1752 dpm	651 dpm	8%	205 dpm	2362 ng	56%	18%	760 ng	0%	4200 ng	8 ng	–	18 (WLWSHN) [compound 18]
2020 dpm	74%	19%	379 dpm	1502 dpm	7%	140 dpm	–	–	–	–	–	–	–	–	3 (YVQGLW) [compound 3]

Further lines, the substance ahead of its results:

Substance	Total dpm (rFVIII [1])	0.5M CaCl2 % total (rFVIII [1])	2% acetic acid % total (rFVIII [1])	2% acetic acid dpm (rFVIII [1])	0.5M CaCl2 dpm (rFVIII [1])	beads % total (rFVIII [1])	beads dpm (rFVIII [1])	0.5M CaCl2 ng (rFVIII [2])	0.5M CaCl2 % total (rFVIII [2])	2% acetic acid % total (rFVIII [2])	2% acetic acid ng (rFVIII [2])	Flow through % total (rFVIII [2])	Total ng (rFVIII [2])	Flow through ng (rFVIII [2])	ELISA results % total (rFVIII [2])
16 (WRRHRY) [compound 16]	2897 dpm	21%	45%	1302 dpm	608 dpm	34%	986 dpm	338 ng	9%	71%	2550 ng	2%	3615 ng	56 ng	–
4 (FRPHWA) [compound 4]	3744 dpm	78%	17%	631 dpm	2905 dpm	6%	209 dpm	5510 ng	90%	3%	160 ng	4%	6123 ng	225 ng	90%
